Data: the supplement of paper PMC12783771
± gives the standard deviation of the averaged measurements.

B1: library; a variant is named by its letters at X, in order (parent)
chain: MNIQIGELAKRTACPVVTIRFYEQEGLLPPPGRSRGNFRLYGEEHVERLQFIRHCRSLDMPLSDVRTLLSYRKRPDQDCGEVXMLLDEHIRQVESRIGALLELKHHLVELREACSGARPAQSCGILQXLSXCVCXTRGTTAHXSD

Assays:
[1] = variants of: B1; experiment: sfGFP reporter fluorescence (15 h) (µM FITC); higher = higher leak; conditions: library round: Round 2; ligand: none
Procedure: (§1)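 Cell-free biosensing: 1 µL Echo-assembled CFE reactions with linear PbrR variant templates (5 nM) and pPbrR-sfGFP reporter, with 1 µM Pb, 30 µM Zn or no ligand; endpoint sfGFP fluorescence after 15 h at 30 °C calibrated as µM FITC. Round 2 ML-predicted PbrR mutants; up to 3 biological replicates.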

[2] = variants of: B1; experiment: sfGFP reporter fluorescence (15 h) (µM FITC); higher = stronger transcriptional activation; conditions: library round: Round 2
Procedure: as §1

Row | Variant | sfGFP reporter fluorescence [1] | sfGFP reporter fluorescence ([2]; ligand: 1 µM Pb) | sfGFP reporter fluorescence ([2]; ligand: 30 µM Zn)
1 | NIDDP M60L D64K R111L | 1.98 ± 0.27 | 3.14 ± 0.19 | 3.92 ± 0.41
2 | SGDDW V108L | 0.0515 ± 0.0023 | 0.0672 ± 0.0033 | 0.247 ± 0.031
3 | THDDW | 0.0458 ± 0.0021 | 0.0682 ± 0.011 | 0.0889 ± 0.0029
4 | NICDP M60L D64K | 2.32 ± 0.17 | 3.17 ± 0.17 | 3.67 ± 0.38
5 | NIDSP M60L | 0.251 ± 0.048 | 0.739 ± 0.14 | 2.25 ± 0.49
6 | NGDDM I90L I125L | 0.0615 ± 0.0043 | 0.0526 ± 0.0027 | 0.0576 ± 0.0035
7 | TGDDP K104R E112F | 0.0494 ± 0.00089 | 0.0553 ± 0.0034 | 0.111 ± 0.0062
8 | NGDAP L129I H142A | 0.0458 ± 0.0024 | 0.0491 ± 0.0012 | 0.302 ± 0.012
9 | NIEDP C134E | 0.194 ± 0.028 | 0.316 ± 0.0082 | 4.73 ± 3.2
10 | TGDDP R96A K104V | 0.052 ± 0.0012 | 0.0513 ± 0.0043 | 0.0712 ± 0.0018
11 | NGCDP I125V L129M | 0.0493 ± 0.0017 | 0.0435 ± 0.0022 | 0.0493 ± 0.003
12 | NGCDP M60L P61N D64K K104V | 0.179 ± 0.016 | 0.384 ± 0.049 | 1.39 ± 0.088
13 | NICDP I125L | 0.0468 ± 0.0013 | 0.0446 ± 0.0014 | 0.0531 ± 0.0013
14 | NMDAK L107C | 2.86 ± 0.17 | 3.46 ± 0.15 | 3.68 ± 0.19
15 | NHDDL E109L I125L | 0.048 ± 0.0018 | 0.044 ± 0.0027 | 0.047 ± 0.0027
16 | TGDDM V108L | 0.0605 ± 0.0032 | 0.0645 ± 0.0026 | 0.209 ± 0.025
17 | NGDPP G124S I125L | 0.0484 ± 0.0015 | 0.0455 ± 0.0014 | 0.0506 ± 0.001
18 | TGDDY I125L | 0.0486 ± 0.0014 | 0.0429 ± 0.0049 | 0.0494 ± 0.0015
19 | NIDDP I90L C134E | 0.0691 ± 0.0074 | 0.0913 ± 0.0088 | 1.77 ± 0.32
20 | NGDDP | 0.0488 ± 0.0061 | 0.0602 ± 0.0046 | 0.684 ± 0.074
21 | NSAAP | 0.0758 ± 0.0055 | 0.162 ± 0.0077 | 1.67 ± 0.15
22 | NGTYP V133P | 0.0724 ± 0.0067 | 0.148 ± 0.0095 | 0.951 ± 0.42

Row | Variant | sfGFP reporter fluorescence [1] | sfGFP reporter fluorescence ([2]; ligand: 1 µM Pb) | sfGFP reporter fluorescence ([2]; ligand: 30 µM Zn)
23 | SGDDP I90L D145A | 0.0442 ± 0.0022 | 0.046 ± 0.001 | 0.122 ± 0.0052
24 | TIDDP L107C E109H | 0.247 ± 0.016 | 1.19 ± 0.15 | 2.03 ± 0.17
25 | SGDAY | 0.0491 ± 0.0015 | 0.0749 ± 0.0032 | 0.399 ± 0.039
26 | SGDAA | 0.0628 ± 0.0043 | 0.0745 ± 0.0027 | 0.449 ± 0.062
27 | NMDDP M60L D64T L107C | 3.16 ± 0.21 | 2.93 ± 0.29 | 4.14 ± 0.31
28 | NMDDP K104V L107S | 0.0726 ± 0.0093 | 0.159 ± 0.014 | 1.27 ± 0.068
29 | NGTDP S115G V133P | 0.0474 ± 0.0012 | 0.0633 ± 0.00085 | 0.461 ± 0.052
30 | NIADP L107C | 2.06 ± 0.19 | 3.57 ± 0.56 | 3.67 ± 0.32
31 | TGAPW | 0.0521 ± 0.00089 | 0.146 ± 0.014 | 0.264 ± 0.014
32 | TGAPL | 0.0604 ± 0.0053 | 0.109 ± 0.013 | 0.301 ± 0.034
33 | NGDDP P61N L107C C134I | 2.22 ± 0.18 | 2.54 ± 0.38 | 3.82 ± 0.36
34 | TGDDL T139A | 0.0436 ± 0.001 | 0.0619 ± 0.0082 | 0.241 ± 0.015
35 | TIDAP L107C G124A | 0.27 ± 0.037 | 1.38 ± 0.23 | 2.81 ± 0.45
36 | NGDDR V108L T139A | 0.0498 ± 0.0012 | 0.068 ± 0.0054 | 0.809 ± 0.081
37 | NMDAP L107C | 2.23 ± 0.28 | 3.21 ± 0.21 | 3.29 ± 0.5
38 | NIDDP M60L P61N K104V L107C | 0.315 ± 0.042 | 1.19 ± 0.096 | 2.16 ± 0.42
39 | TGDDW L126I | 0.0487 ± 0.0018 | 0.04581 ± 0.00039 | 0.0773 ± 0.00089
40 | NGDAP S130A T136A | 0.0512 ± 0.001 | 0.0834 ± 0.0067 | 1.11 ± 0.13
41 | TGCAP | 0.0461 ± 0.0022 | 0.0657 ± 0.0026 | 0.0869 ± 0.005
42 | TGCAT | 0.0488 ± 0.002 | 0.0664 ± 0.0029 | 0.09 ± 0.0056
43 | NGYAP K104R | 0.0664 ± 0.0054 | 0.0679 ± 0.0057 | 0.698 ± 0.11
44 | TGDDY V82I L129I | 0.0454 ± 0.0012 | 0.0463 ± 0.00051 | 0.0601 ± 0.013
